First the molecules themselves.
B1: Microtubule-associated tumor suppressor candidate 2 (Homo sapiens), Q5JR59-3 (parent)
chain: MGHCCCKPYNCLQCLDKTNESALVKEKELSIELANIRDEVAFHTAKCEKLQKEKEELERRFEDEVKRLGWQQQAELQELEERLQLQFEAEMARLQEEHGDQLLSIRCQHQEQVEDLTASHDAALLEMENNHTVAITILQDDHDHKVQELMSTHELEKKELEENFEKLRLSLQDQVDTLTFQSQSLRDRARRFEEALRKNTEEQLEIALAPYQHLEEDMKSLKQVLEMKNQQIHEQEKKILELEKLAEKNIILEEKIQVLQQQNEDLKARIDQNTVVTRQLSEENANLQEYVEKETQEKKRLSRTNEELLWKLQTGDPTSPIKLSPTSPVYRGSSSGPSSPARVSTTPR
partner: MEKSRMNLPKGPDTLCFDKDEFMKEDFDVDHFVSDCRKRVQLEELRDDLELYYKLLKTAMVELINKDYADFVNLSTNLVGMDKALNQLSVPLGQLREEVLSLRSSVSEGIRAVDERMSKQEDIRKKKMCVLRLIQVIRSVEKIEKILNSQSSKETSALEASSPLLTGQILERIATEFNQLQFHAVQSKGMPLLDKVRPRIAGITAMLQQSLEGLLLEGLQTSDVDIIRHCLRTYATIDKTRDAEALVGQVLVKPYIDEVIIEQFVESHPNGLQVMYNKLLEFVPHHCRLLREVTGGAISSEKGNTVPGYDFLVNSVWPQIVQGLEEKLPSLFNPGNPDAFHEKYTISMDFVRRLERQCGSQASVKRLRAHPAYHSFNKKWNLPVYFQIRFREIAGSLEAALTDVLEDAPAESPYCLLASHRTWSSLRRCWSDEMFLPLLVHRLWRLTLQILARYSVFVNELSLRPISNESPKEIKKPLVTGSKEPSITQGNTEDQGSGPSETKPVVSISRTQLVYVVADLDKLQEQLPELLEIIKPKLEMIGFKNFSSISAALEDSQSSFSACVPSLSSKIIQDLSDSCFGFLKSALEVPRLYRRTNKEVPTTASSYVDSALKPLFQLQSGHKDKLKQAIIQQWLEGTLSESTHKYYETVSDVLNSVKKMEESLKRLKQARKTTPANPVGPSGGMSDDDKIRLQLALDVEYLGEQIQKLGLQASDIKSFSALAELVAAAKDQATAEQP
B2: Protein phosphatase 1 regulatory inhibitor subunit 16B (Homo sapiens), Q96T49 (parent)
chain: MASHVDLLTELQLLEKVPTLERLRAAQKRRAQQLKKWAQYEQDLQHRKRKHERKRSTGGRRKKVSFEASVALLEASLRNDAEEVRYFLKNKVSPDLCNEDGLTALHQCCIDNFEEIVKLLLSHGANVNAKDNELWTPLHAAATCGHINLVKILVQYGADLLAVNSDGNMPYDLCEDEPTLDVIETCMAYQGITQEKINEMRVAPEQQMIADIHCMIAAGQDLDWIDAQGATLLHIAGANGYLRAAELLLDHGVRVDVKDWDGWEPLHAAAFWGQMQMAELLVSHGASLSARTSMDEMPIDLCEEEEFKVLLLELKHKHDVIMKSQLRHKSSLSRRTSSAGSRGKVVRRASLSDRTNLYRKEYEGEAILWQRSAAEDQRTSTYNGDIRETRTDQENKDPNPRLEKPVLLSEFPTKIPRGELDMPVENGLRAPVSAYQYALANGDVWKVHEVPDYSMAYGNPGVADATPPWSSYKEQSPQTLLELKRQRAAAKLLSHPFLSTHLGSSMARTGESSSEGKAPLIGGRTSPYSSNGTSVYYTVTSGDPPLLKFKAPIEEMEEKVHGCCRIS
partner: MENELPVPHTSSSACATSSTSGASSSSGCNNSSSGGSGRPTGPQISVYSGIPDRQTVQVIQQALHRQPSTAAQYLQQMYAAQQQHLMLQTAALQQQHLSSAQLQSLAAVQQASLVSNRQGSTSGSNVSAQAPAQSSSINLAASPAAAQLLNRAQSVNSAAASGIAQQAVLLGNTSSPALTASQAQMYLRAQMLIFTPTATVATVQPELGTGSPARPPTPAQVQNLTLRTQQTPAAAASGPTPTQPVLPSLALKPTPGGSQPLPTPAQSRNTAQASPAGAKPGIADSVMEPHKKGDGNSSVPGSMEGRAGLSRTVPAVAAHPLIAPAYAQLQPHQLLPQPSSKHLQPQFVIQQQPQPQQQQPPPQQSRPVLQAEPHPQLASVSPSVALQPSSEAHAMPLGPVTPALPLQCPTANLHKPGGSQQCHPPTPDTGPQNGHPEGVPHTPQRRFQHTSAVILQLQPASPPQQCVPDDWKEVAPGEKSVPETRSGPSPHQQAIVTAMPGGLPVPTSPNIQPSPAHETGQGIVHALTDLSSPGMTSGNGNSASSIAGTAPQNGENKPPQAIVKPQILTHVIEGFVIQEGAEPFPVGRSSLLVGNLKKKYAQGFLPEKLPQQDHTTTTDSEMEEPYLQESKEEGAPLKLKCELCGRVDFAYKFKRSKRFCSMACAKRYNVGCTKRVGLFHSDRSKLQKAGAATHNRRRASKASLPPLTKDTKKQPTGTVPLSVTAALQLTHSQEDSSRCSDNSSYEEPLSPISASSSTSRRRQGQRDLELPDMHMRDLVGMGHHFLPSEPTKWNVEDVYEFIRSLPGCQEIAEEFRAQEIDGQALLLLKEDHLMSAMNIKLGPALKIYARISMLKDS
B3: Beta-taxilin (Homo sapiens), Q8N3L3 (parent)
chain: MEANHSEQLSAERQSTPPGDSSSLPSHNGLEKEDGQDSPTPVQPPEKEASVHPDISEELNRQLEDIINTYGSAASTAGKEGSARASEQPENAESPDNEDGDCEETTEEAGREPVASGEPPTVKEPVSNKEQKLEKKILKGLGKEANLLMQNLNKLQTPEEKFDFLFKKYAELLDEHRTEQKKLKLLQKKQVQIQKEKDQLQGEHSRAILARSKLESLCRELQRHNKTLKEEALQRAREEEEKRKEITSHFQSTLTDIQGQIEQQSERNMKLCQENTELAEKLKSIIDQYELREEHLDKIFKHRELQQKLVDAKLEQAQEMMKEAEERHKREKEYLLNQAAEWKLQAKVLKEQETVLQAQLTLYSGRFEEFQSTLTKSNEVFATFKQEMDKTTKKMKKLEKDTATWKARFENCNKALLDMIEEKALRAKEYECFVMKIGRLENLCRALQEERNELHKKIRDAEISEKDDQSQHNSDEEPESNVSVDQEIDAEEVNSVQTAVKNLATAFMIIHHPESTPHQSKETQPEIGSSQESADAALKEPEQPPLIPSRDSESPLPPLTPQAEAEGGSDAEPPSKASNSPAGLGAETQCEGLPVGAQADQASWKPEAEASGQAPQAPTEASLQKMEADVPAPACAAEEHVAAMVPACEPSRQPPRAAAEELPVGASAGPQPRNVADTNLEGVD
partner: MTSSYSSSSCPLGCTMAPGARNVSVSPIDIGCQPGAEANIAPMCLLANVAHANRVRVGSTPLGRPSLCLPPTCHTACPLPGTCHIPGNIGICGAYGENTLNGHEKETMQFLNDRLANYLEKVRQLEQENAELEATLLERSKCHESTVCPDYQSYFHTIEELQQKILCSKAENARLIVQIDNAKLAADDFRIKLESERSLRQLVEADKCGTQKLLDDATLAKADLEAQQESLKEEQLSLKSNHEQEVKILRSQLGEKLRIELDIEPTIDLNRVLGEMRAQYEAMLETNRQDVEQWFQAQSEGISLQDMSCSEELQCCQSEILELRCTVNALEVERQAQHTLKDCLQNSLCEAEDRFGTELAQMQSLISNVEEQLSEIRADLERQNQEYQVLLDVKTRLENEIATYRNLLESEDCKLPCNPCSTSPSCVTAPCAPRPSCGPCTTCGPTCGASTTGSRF
B4: Keratin, type II cytoskeletal 2 epidermal (Homo sapiens), P35908 (parent)
chain: MSCQISCKSRGRGGGGGGFRGFSSGSAVVSGGSRRSTSSFSCLSRHGGGGGGFGGGGFGSRSLVGLGGTKSISISVAGGGGGFGAAGGFGGRGGGFGGGSSFGGGSGFSGGGFGGGGFGGGRFGGFGGPGGVGGLGGPGGFGPGGYPGGIHEVSVNQSLLQPLNVKVDPEIQNVKAQEREQIKTLNNKFASFIDKVRFLEQQNQVLQTKWELLQQMNVGTRPINLEPIFQGYIDSLKRYLDGLTAERTSQNSELNNMQDLVEDYKKKYEDEINKRTAAENDFVTLKKDVDNAYMIKVELQSKVDLLNQEIEFLKVLYDAEISQIHQSVTDTNVILSMDNSRNLDLDSIIAEVKAQYEEIAQRSKEEAEALYHSKYEELQVTVGRHGDSLKEIKIEISELNRVIQRLQGEIAHVKKQCKNVQDAIADAEQRGEHALKDARNKLNDLEEALQQAKEDLARLLRDYQELMNVKLALDVEIATYRKLLEGEECRMSGDLSSNVTVSVTSSTISSNVASKAAFGGSGGRGSSSGGGYSSGSSSYGSGGRQSGSRGGSGGGGSISGGGYGSGGGSGGRYGSGGGSKGGSISGGGYGSGGGKHSSGGGSRGGSSSGGGYGSGGGGSSSVKGSSGEAFGSSVTFSFR
B5: Phosphatidylserine lipase ABHD16A (Homo sapiens), O95870 (parent)
chain: MAKLLSCVLGPRLYKIYRERDSERAPASVPETPTAVTAPHSSSWDTYYQPRALEKHADSILALASVFWSISYYSSPFAFFYLYRKGYLSLSKVVPFSHYAGTLLLLLAGVACLRGIGRWTNPQYRQFITILEATHRNQSSENKRQLANYNFDFRSWPVDFHWEEPSSRKESRGGPSRRGVALLRPEPLHRGTADTLLNRVKKLPCQITSYLVAHTLGRRMLYPGSVYLLQKALMPVLLQGQARLVEECNGRRAKLLACDGNEIDTMFVDRRGTAEPQGQKLVICCEGNAGFYEVGCVSTPLEAGYSVLGWNHPGFAGSTGVPFPQNEANAMDVVVQFAIHRLGFQPQDIIIYAWSIGGFTATWAAMSYPDVSAMILDASFDDLVPLALKVMPDSWRGLVTRTVRQHLNLNNAEQLCRYQGPVLLIRRTKDEIITTTVPEDIMSNRGNDLLLKLLQHRYPRVMAEEGLRVVRQWLEASSQLEEASIYSRWEVEEDWCLSVLRSYQAEHGPDFPWSVGEDMSADGRRQLALFLARKHLHNFEATHCTPLPAQNFQMPWHL
B6: Protein unc-45 homolog A (Homo sapiens), Q9H3U1 (parent)
chain: MTVSGPGTPEPRPATPGASSVEQLRKEGNELFKCGDYGGALAAYTQALGLDATPQDQAVLHRNRAACHLKLEDYDKAETEASKAIEKDGGDVKALYRRSQALEKLGRLDQAVLDLQRCVSLEPKNKVFQEALRNIGGQIQEKVRYMSSTDAKVEQMFQILLDPEEKGTEKKQKASQNLVVLAREDAGAEKIFRSNGVQLLQRLLDMGETDLMLAALRTLVGICSEHQSRTVATLSILGTRRVVSILGVESQAVSLAACHLLQVMFDALKEGVKKGFRGKEGAIIVDPARELKVLISNLLDLLTEVGVSGQGRDNALTLLIKAVPRKSLKDPNNSLTLWVIDQGLKKILEVGGSLQDPPGELAVTANSRMSASILLSKLFDDLKCDAERENFHRLCENYIKSWFEGQGLAGKLRAIQTVSCLLQGPCDAGNRALELSGVMESVIALCASEQEEEQLVAVEALIHAAGKAKRASFITANGVSLLKDLYKCSEKDSIRIRALVGLCKLGSAGGTDFSMKQFAEGSTLKLAKQCRKWLCNDQIDAGTRRWAVEGLAYLTFDADVKEEFVEDAAALKALFQLSRLEERSVLFAVASALVNCTNSYDYEEPDPKMVELAKYAKQHVPEQHPKDKPSFVRARVKKLLAAGVVSAMVCMVKTESPVLTSSCRELLSRVFLALVEEVEDRGTVVAQGGGRALIPLALEGTDVGQTKAAQALAKLTITSNPEMTFPGERIYEVVRPLVSLLHLNCSGLQNFEALMALTNLAGISERLRQKILKEKAVPMIEGYMFEEHEMIRRAATECMCNLAMSKEVQDLFEAQGNDRLKLLVLYSGEDDELLQRAAAGGLAMLTSMRPTLCSRIPQVTTHWLEILQALLLSSNQELQHRGAVVVLNMVEASREIASTLMESEMMEILSVLAKGDHSPVTRAAAACLDKAVEYGLIQPNQDGE
partner: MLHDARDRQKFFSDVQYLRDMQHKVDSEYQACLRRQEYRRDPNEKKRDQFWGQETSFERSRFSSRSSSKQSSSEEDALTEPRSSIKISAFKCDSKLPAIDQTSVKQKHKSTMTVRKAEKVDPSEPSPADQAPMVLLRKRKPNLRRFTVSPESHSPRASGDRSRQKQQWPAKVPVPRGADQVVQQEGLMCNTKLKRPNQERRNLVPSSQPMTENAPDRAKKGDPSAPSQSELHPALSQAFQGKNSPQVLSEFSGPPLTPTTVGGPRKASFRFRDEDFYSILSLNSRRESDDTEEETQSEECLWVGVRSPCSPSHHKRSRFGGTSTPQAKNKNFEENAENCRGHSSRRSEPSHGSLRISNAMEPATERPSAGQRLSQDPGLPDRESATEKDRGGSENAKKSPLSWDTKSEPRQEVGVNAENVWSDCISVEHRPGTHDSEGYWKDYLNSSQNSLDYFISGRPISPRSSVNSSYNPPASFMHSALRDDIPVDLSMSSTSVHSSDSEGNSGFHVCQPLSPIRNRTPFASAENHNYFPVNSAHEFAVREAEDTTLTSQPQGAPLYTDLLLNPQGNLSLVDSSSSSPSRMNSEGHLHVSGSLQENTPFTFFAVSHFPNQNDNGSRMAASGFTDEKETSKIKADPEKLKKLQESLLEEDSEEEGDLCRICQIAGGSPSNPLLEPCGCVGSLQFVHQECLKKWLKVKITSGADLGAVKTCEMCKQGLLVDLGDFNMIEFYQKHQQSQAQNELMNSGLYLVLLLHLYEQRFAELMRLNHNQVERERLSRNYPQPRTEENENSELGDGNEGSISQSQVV

In one assay the parent is B1. Particulars: with cog2_human COG2, Q14746.
A89V: the “effect of a mutation on the interaction” value is “with no effect”.

The variants in the next assay derive from B2. Particulars: with phc2_human PHC2, Q8IXK0.
As to P519S, the “effect of a mutation on the interaction” value was “with no effect”.

In a further assay the parent is B3. The settings on record: with krt38_human KRT38, O76015.
Turning to I527T, the “effect of a mutation on the interaction” value was “with no effect”.

In the next assay the parent is B4. The settings on record: with KRT19, P08727.
Sequence of KRT19, P08727 (P08727 whole entry): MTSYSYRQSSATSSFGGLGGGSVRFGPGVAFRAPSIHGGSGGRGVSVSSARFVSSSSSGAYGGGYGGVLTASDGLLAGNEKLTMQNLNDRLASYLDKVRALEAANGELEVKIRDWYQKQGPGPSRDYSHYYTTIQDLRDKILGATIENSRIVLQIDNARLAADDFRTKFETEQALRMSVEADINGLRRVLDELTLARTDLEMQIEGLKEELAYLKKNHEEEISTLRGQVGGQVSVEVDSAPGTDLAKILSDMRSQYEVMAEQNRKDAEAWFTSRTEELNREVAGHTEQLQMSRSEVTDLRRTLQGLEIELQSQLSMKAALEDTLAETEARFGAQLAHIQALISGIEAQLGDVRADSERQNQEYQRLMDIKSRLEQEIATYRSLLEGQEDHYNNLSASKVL
In the case of A517G, the “effect of a mutation on the interaction” value is “with no effect”.

The next assay covers variants of B5. The settings on record: with dtx2_human DTX2, Q86UW9.
Sequence of dtx2_human DTX2, Q86UW9 (Q86UW9 whole entry): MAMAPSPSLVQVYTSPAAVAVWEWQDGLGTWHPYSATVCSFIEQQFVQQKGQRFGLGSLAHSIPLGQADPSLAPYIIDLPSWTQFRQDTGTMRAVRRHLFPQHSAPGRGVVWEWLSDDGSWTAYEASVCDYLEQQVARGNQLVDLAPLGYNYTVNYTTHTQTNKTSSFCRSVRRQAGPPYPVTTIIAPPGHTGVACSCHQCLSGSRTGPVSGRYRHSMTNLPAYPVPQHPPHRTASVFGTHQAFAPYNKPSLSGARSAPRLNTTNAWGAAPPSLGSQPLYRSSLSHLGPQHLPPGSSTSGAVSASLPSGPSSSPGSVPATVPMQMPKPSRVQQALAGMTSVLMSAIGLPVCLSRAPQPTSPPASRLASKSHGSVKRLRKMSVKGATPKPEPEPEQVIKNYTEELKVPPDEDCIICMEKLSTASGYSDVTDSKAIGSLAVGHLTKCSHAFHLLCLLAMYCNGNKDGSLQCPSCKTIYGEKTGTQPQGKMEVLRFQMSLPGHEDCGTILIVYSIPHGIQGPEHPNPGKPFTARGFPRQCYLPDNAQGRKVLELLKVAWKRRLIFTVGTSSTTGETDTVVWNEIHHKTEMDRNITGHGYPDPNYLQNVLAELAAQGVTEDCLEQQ
R184L: the “effect of a mutation on the interaction” value is recorded as “with no effect”.

In the next assay the parent is B6. Particulars: with marha_human MARCHF10, Q8NA82.
Consider T796M, for which the “effect of a mutation on the interaction” value was “with no effect”.
